± gives the uncertainty stated by the source.

This series is described as follows: amyloid nucleation score (Sup35N fusion, yeast selection) (log enrichment); library NNK2; higher = more nucleation; inactive = no reads after selection. In a few lines:
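In psi-negative yeast, Sup35N fusions carrying peptides of 20 random codons were induced with 100 μM copper sulfate for 24 hours. The cells then grew 7 days at 30°C on medium lacking adenine and uracil, and plasmid inserts from input and output were Illumina-sequenced, excluding sequences with under 100 input reads. Nucleation score is the DiMSum log enrichment of output over input reads, centred on the mode score of non-aggregating sequences.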
Turning to ISIAGCFNTKILWMFEQ, the amyloid nucleation score was 6.32 ± 0.087.

As for FFSNL, the amyloid nucleation score was 0.119 ± 0.57.

On to SDGNELDWIAGLTMYRGVER, for which the amyloid nucleation score was determined as 0.319 ± 0.8.

As for KRSLNLLKGLIYL, the amyloid nucleation score is -1.05 ± 1.1.

In the case of NGSRSSMSGARERYCYIRVS, the amyloid nucleation score result is “inactive”.

IPTFSSLCLMLRTEGPRVDI returned an amyloid nucleation score of -1.05 ± 1.1.

Regarding SVFFGFWDTHAAAYMHGVFM, the amyloid nucleation score result is “inactive”.

Substance LSSTRDR had an amyloid nucleation score of -1.24 ± 0.48.

The substance QALQFIVSQRL came in with an amyloid nucleation score of 3.59 ± 0.11.

The substance VVSYFCCLDCSLNAYS gave an amyloid nucleation score of 9.384 ± 0.043.

LDSLCG yielded an amyloid nucleation score of 0.546 ± 0.57.

As to AQVEFLYNSLVHYFSIDNTG, the amyloid nucleation score entry is “inactive”.

SHPDRTIDSGFDTMRDAIWT returned an amyloid nucleation score of 0.22 ± 0.63.

INSQVDGFSEWPGVVQSKTL returned an amyloid nucleation score of -0.157 ± 0.38.

In turn, IVCQDFYTAWEYYTYAHR came in with an amyloid nucleation score of 3.07 ± 0.048.

In turn, CLRVVCLRGLFYYANSACQV yielded an amyloid nucleation score of -0.199 ± 0.54.

SYPDELNLEFGCYHQSWTYF showed an amyloid nucleation score of 3.67 ± 0.058.

MMHELHPRIELCG returned an amyloid nucleation score of 6.12 ± 0.062.

The substance MRSYIQFVFCGDCRFFNWVI gave an amyloid nucleation score of 6.298 ± 0.05.

In the case of EITSKMSSWGSLTASALTIS, the amyloid nucleation score was -0.104 ± 0.48.

The substance IIWVHSTIPSRVNR had an amyloid nucleation score of -0.183 ± 1.

Consider YWQYCVDANFKQLMQRGKVF, for which the amyloid nucleation score stood at 0.728 ± 0.62.

For CSFNKTALIAFNSNGGEYEH, the amyloid nucleation score was -2.66 ± 0.75.

For the substance SFNYP, the amyloid nucleation score result is “inactive”.

KCGRWPANAVYWHDTLSCAC yielded an amyloid nucleation score of 0.231 ± 0.31.

As to RAQYPFDSLSRGSGPVMWLS, the amyloid nucleation score worked out at 1 ± 0.57.

SPHNTARLESAEDQSSMCEP displayed an amyloid nucleation score of 1.55 ± 0.23.

As to DFVIESLNMYYWCTRGVVKK, the amyloid nucleation score result was “inactive”.

In turn, GLMGLYRRALSTLRRILFMR returned an amyloid nucleation score of -0.072 ± 0.63.

For GLRCRYPSRPVTCGLLWGCG, the amyloid nucleation score is 0.089 ± 0.37.

The substance GYCLMTFLISTCYG had an amyloid nucleation score of 5.166 ± 0.031.

As to LELWFGDWNRVMYSCSVDWG, the amyloid nucleation score was -0.096 ± 0.5.

Regarding CFLESGSLMLYEV, the amyloid nucleation score is -0.081 ± 1.1.

With LAAGWGVLHELL, the amyloid nucleation score result is “inactive”.

As for ASQAHSEIMLVVTMNALHQP, the amyloid nucleation score came out at 7.57 ± 0.076.

The substance SVSSKGNLGA yielded an amyloid nucleation score of 0.11 ± 0.22.

In turn, LDLLKNCCTASMPGSLVVGR returned an amyloid nucleation score of 0.369 ± 0.65.

For the substance ISFSSTSIHFGD, the amyloid nucleation score was determined as 1.04 ± 0.11.

The substance RQQMDS had an amyloid nucleation score of 3.62 ± 0.073.

Substance QFSLAVSTLSL yielded an amyloid nucleation score of 1.48 ± 0.27.

KELRQSVVIM showed an amyloid nucleation score of 0.644 ± 0.35.

IRPSWLKENLRMVYWYKDYP displayed an amyloid nucleation score of 2.53 ± 0.077.

In turn, VRNGWCTSWNSTAN displayed an amyloid nucleation score of 0.974 ± 0.52.

WLQAHGIVYLNICRNSGFVH came in with an amyloid nucleation score of 5.12 ± 0.058.

The substance CFQSRYLTRSGLKVWHTKGD displayed an amyloid nucleation score of 0.631 ± 0.37.

As for YIFFSEKISTMSYSDKLRMA, the amyloid nucleation score worked out at 5.89 ± 0.083.

NYIRYLRVYYIVGDELRPGN displayed an amyloid nucleation score of 8.026 ± 0.048.

For the substance VSITISTTCSNKGS, the amyloid nucleation score is 1.29 ± 0.22.

On to YRLGLCGTFHINCVLINRDG, for which the amyloid nucleation score worked out at 5.2 ± 0.056.

Consider QGILGSFIGKRCGFTRLKTL, for which the amyloid nucleation score entry was “inactive”.

In the case of LGSVYRQGSEGGWATYLNTY, the amyloid nucleation score entry was “inactive”.

On to IILRCNKDFEALACIVVSRR, for which the amyloid nucleation score result was “inactive”.

LAGWRRK registered an amyloid nucleation score of 0.355 ± 0.36.

For the substance LSLLFH, the amyloid nucleation score result is “inactive”.

As to RYFDWYNI, the amyloid nucleation score was -1.28 ± 0.45.

In the case of HHSWRYRLYVSIDSSFCLGA, the amyloid nucleation score result is “inactive”.

Substance MVSSIGILASWYTSIVWFGY displayed an amyloid nucleation score of -0.191 ± 1.1.

As to GTTMTPFPRKCFRSVILFVG, the amyloid nucleation score came out at 1.1 ± 0.3.

Substance RFDSWVAWGFG came in with an amyloid nucleation score of 1.74 ± 0.15.

For the substance CYNALWLFGNHAKTAHGLGH, the amyloid nucleation score was determined as 0.709 ± 0.48.

Substance MVPCWRFQSMC yielded an amyloid nucleation score of 0.961 ± 0.81.

CNGRVKAYVSQNYVSEYGVL yielded an amyloid nucleation score of -0.1 ± 0.2.

Substance WCGLISASYTLIHSNRFMKL had an amyloid nucleation score of -1.04 ± 1.1.

Regarding FWYRAYDLIPVLTAGWRYLF, the amyloid nucleation score stood at 0.001 ± 0.76.

In turn, LDFALNCNSRFSLTQDS gave an amyloid nucleation score of 2.83 ± 0.13.

ALLTVFFNLVVVWDVKAVTP returned an amyloid nucleation score of -0.159 ± 1.

As to RGRCPCEVFNGSYVFVTHGD, the amyloid nucleation score entry was “inactive”.

In turn, NSLLNFWEVTLLRGGTHMVF showed an amyloid nucleation score of -0.675 ± 0.29.

SCDWRAGPSSATRTR came in with an amyloid nucleation score of 1.24 ± 0.35.

FFAGKCGIMTSLRDLSVAFG returned an amyloid nucleation score of -0.071 ± 0.65.

GLNYPAIWEARLKG came in with an amyloid nucleation score of 0.703 ± 0.29.

Regarding LTYYTNRTQYLML, the amyloid nucleation score is -0.424 ± 1.1.

LLMRVFRGESR: the amyloid nucleation score was -1.02 ± 0.49.

Consider QLFHAWTTWPSGDHNIAWRY, for which the amyloid nucleation score is 3.3 ± 0.14.

Take VNWLFACVELR: the amyloid nucleation score was determined as 0.365 ± 0.36.

As for GNADRF, the amyloid nucleation score is -1.12 ± 0.63.

Turning to HEVVKFK, the amyloid nucleation score is 0.016 ± 1.1.

In turn, VVEICFYW yielded an amyloid nucleation score of 6.258 ± 0.034.

For the substance LQASDKGKLLRTIPLRHYVP, the amyloid nucleation score came to 1.02 ± 0.33.

On to SRWIGSECNPNCNLSVSYIL, for which the amyloid nucleation score was found to be 4.87 ± 0.057.

Take MRCDTVMKSSYASVASMGL: the amyloid nucleation score entry is “inactive”.

For the substance LRVKKYTDFHELEVGLFFWL, the amyloid nucleation score entry is “inactive”.

Turning to GFWVWMWPRSHCAGGPSLDL, the amyloid nucleation score came out at 1.13 ± 0.4.

Regarding LHSYPVKYGSRKDTRAKCGG, the amyloid nucleation score was 0.605 ± 0.29.

GKVGNNTLSVYGMDTT: the amyloid nucleation score entry was “inactive”.

In turn, SLKSYVSVQFELASSVWILE showed an amyloid nucleation score of 1.02 ± 0.24.

In the case of NGIKFRGMVVTP, the amyloid nucleation score was 0.294 ± 0.65.

As to LRRYYQCGTRLLIRFRMLEV, the amyloid nucleation score was 1 ± 0.34.

YWFHDCMRCCGNKILLLPDI showed an amyloid nucleation score of -0.712 ± 1.1.

Regarding NLDDEL, the amyloid nucleation score was found to be 0.422 ± 0.43.

The substance TDKKACNLNDANVS gave an amyloid nucleation score of -0.014 ± 0.76.

As to SKCIRLPFFTLLLTNMFHVA, the amyloid nucleation score entry is “inactive”.

Substance NRKFHIMTFC registered an amyloid nucleation score of 0.415 ± 0.41.

In turn, CNGYRKVHCLMTMSRWTYGR returned an amyloid nucleation score of 1.08 ± 0.1.

As for VVCLPVISLCWIFLHIIF, the amyloid nucleation score result is “inactive”.

Substance EYHLDHDFSPMGMAPRH gave an amyloid nucleation score of 0.049 ± 0.63.

Take MPYALIR: the amyloid nucleation score is -0.821 ± 0.35.

Substance VDDFELMLYAMVVNGLELLD had an amyloid nucleation score of -0.19 ± 1.

The substance HVRYYGTHSTVNDNYIRNVR registered an amyloid nucleation score of 0.425 ± 0.31.

The substance DLDFIKDLTAKLY registered an amyloid nucleation score of -0.183 ± 1.

On to TYDLGCDYPIVPYVNFLCM, for which the amyloid nucleation score was 6.59 ± 0.072.

Turning to IVGAIRSKILGTGQTRVIWG, the amyloid nucleation score was determined as 0.477 ± 0.65.

Regarding IRLDTKDGCRYN, the amyloid nucleation score result was “inactive”.

Regarding NWPGCVHNTVISDLGRVHCM, the amyloid nucleation score was -0.853 ± 0.56.

Regarding CLRYGISRWLRLFRINNVVE, the amyloid nucleation score is 0.046 ± 0.34.

RLYTREQLRTLWLSYMFLRK: the amyloid nucleation score was -0.357 ± 0.29.

Substance ERRRFRVDRKVLAFFYVSGT gave an amyloid nucleation score of 0.046 ± 0.37.

Consider TWKYDRMVGKIVGLALRVVT, for which the amyloid nucleation score was 0.643 ± 0.43.

FSQYCMALLIVNQEFWACCW gave an amyloid nucleation score of -0.944 ± 0.45.

The substance KVGVVNYTTSLRFAGRDSSL yielded an amyloid nucleation score of 4.52 ± 0.091.

For YANMGYQGLIRGIGVLDWIK, the amyloid nucleation score is -0.119 ± 0.36.

On to LTMCICWLTQCMT, for which the amyloid nucleation score turned out to be 6.283 ± 0.056.

Take LGWQPNMWLISFISVSY: the amyloid nucleation score was -0.81 ± 0.64.

CAVVKAILSCMFTLSSSCLH showed an amyloid nucleation score of 0.441 ± 0.49.

For the substance VVYFFFCLDMVMTGF, the amyloid nucleation score came to 4.65 ± 0.087.

VNSSFLLGFCLRIMNHV: the amyloid nucleation score entry is “inactive”.

In the case of LYVQLQMEVVGPGVRLTGSL, the amyloid nucleation score is 3.19 ± 0.077.

In turn, SLFGQLSCQASCRSSKDGGN gave an amyloid nucleation score of 6.375 ± 0.061.

Regarding WVSMVVCMVSYNSYFE, the amyloid nucleation score turned out to be 5.48 ± 0.062.

HRYLPSG registered an amyloid nucleation score of 0.224 ± 0.8.

The substance RTPSCSL gave an amyloid nucleation score of -0.916 ± 1.

Consider ITVYLRTRFLGFGFEYE, for which the amyloid nucleation score is -0.536 ± 1.

SVTPWTMNNSQYILMAYRVK gave an amyloid nucleation score of 0.283 ± 0.34.

Turning to RSKQRCGTTDSPLAMVSKRV, the amyloid nucleation score came to 1.05 ± 0.31.

Substance KKVYVSDTIWMDYNNS gave an amyloid nucleation score of 3.93 ± 0.064.

For the substance AAIIISLSYMI, the amyloid nucleation score stood at 2.23 ± 0.075.

Take GGMYKSMRGWLTGCFVAWVV: the amyloid nucleation score worked out at 0.369 ± 0.34.

The substance SGAVHFQRRASCEGQDMLCW showed an amyloid nucleation score of -0.028 ± 0.26.

In turn, ILTTCMNAKKLNLFGYGL yielded an amyloid nucleation score of -0.291 ± 0.63.

MHMAYSLNMSHSHIRAKAGM returned an amyloid nucleation score of 1.06 ± 0.27.

The substance PTLTSIELSSTPRIRFWDSA gave an amyloid nucleation score of 0.122 ± 0.26.

In the case of ESLEADN, the amyloid nucleation score entry is “inactive”.

With MVGNSNAPARVLCTVSKFGV, the amyloid nucleation score was found to be 0.587 ± 0.33.

On to TCDWLKAFIAWF, for which the amyloid nucleation score stood at 1.53 ± 0.3.

In turn, RCQLRALRCPFMSTVLRCSY had an amyloid nucleation score of 0.803 ± 0.28.

In turn, RNGCLTIEW displayed an amyloid nucleation score of 1.78 ± 0.12.

The substance IQACYGFQSNDVPLISCT had an amyloid nucleation score of -1.78 ± 0.49.

In the case of EDFVLWLMW, the amyloid nucleation score was -0.641 ± 0.63.

As to ACIYRQRDS, the amyloid nucleation score is -0.332 ± 0.56.

The substance SVSCIKFIHSLAEYGMSKEN gave an amyloid nucleation score of 0.697 ± 0.16.
